Values quoted from earlier work in PMC7752828.

Assays:
[1] = molecular target: Fibrin(ogen) gamma' chain γ'-domain (Homo sapiens) (UniProt P02679)
[2] = molecular target: Fibrin E-domain E-domain (Homo sapiens) (UniProt P02671)

Kd [1]: 100 nM | Kd [2]: 2800 nM
Substance: Thrombin (from UniProt P00734)
